Our source for the binding result and Kd values is publication PMC5915679 (Molecular cell, 2017).

No end group written: not given here. FAM = fluorescein amidite

Assay [1] addresses T1, human Argonaute-1 (human, UniProt Q9UL18 1-857). The assay is described as follows: fluorescence polarisation. In general terms: Fluorescence polarisation rises when a labelled molecule tumbles more slowly, as on binding a larger partner.
The target in assay [2] is T1, human Argonaute-1. The assay is described as follows: ITC.

B1: N-terminal fluorescein amidite (FAM) labeled hGW182 hook fragment (peptide, UniProt Q8NDV7-2 820-841, looked up)
peptide: {FAM}-TVDNGTSAWGKPIDSGPSWGEP
B1: the binding result in the assay with human Argonaute-1 [1] is reported as “binds”.

B2: hGW182 (TNRC6A) hook motif (peptide, UniProt Q8NDV7-2 820-841, looked up)
chain: TVDNGTSAWGKPIDSGPSWGEP
What is called Kd is the free concentration of one partner at which half of the binding sites on the other are occupied at equilibrium, for simple one-to-one binding. A lower Kd goes with a tighter complex. Turning to B2, binding with human Argonaute-1 [2] was characterised by a dissociation constant (Kd) of 383 nM.
